Laboratory results as given in patent US20040005324A1 (INTRACEL RESOURCES, published 2004).

Columns and labels:
[1] = biological target: RSV F glycoprotein of MARM vN151 (strain A2 escape mutant, substitution at aa 272) (respiratory syncytial virus strain A2, UniProt P03420 26-574); test: cell-based or functional assay
[2] = biological target: RSV F glycoprotein of MARM v1129 (strain A2 escape mutant, substitution at aa 275) (respiratory syncytial virus strain A2, UniProt P03420 26-574); test: cell-based or functional assay
[3] = biological target: RSV F glycoprotein of MARM v1153 (strain A2 escape mutant, substitution at aa 262) (respiratory syncytial virus strain A2, UniProt P03420 26-574); test: cell-based or functional assay
[4] = biological target: RSV F glycoprotein of MARM v1214 (strain A2 escape mutant, substitution at aa 276) (respiratory syncytial virus strain A2, UniProt P03420 26-574); test: cell-based or functional assay
[5] = biological target: RSV F glycoprotein of MARM v1200 (strain A2 escape mutant, substitution at aa 272) (respiratory syncytial virus strain A2, UniProt P03420 26-574); test: cell-based or functional assay
[6] = biological target: RSV F glycoprotein of MARM v324 (strain A2 escape mutant, arginine to serine at residue 429 of the F1 subunit) (respiratory syncytial virus strain A2, UniProt P03420 26-574, limits assumed); test: cell-based or functional assay
[7] = biological target: RSV F glycoprotein of MARM v1237 (strain A2 escape mutant, substitution at aa 276) (respiratory syncytial virus strain A2, UniProt P03420 26-574); test: cell-based or functional assay
[8] = biological target: RSV F glycoprotein of wild type RSV strain A2 (respiratory syncytial virus strain A2, UniProt P03420 26-574); test: cell-based or functional assay
[9] = biological target: RSV F glycoprotein of subgroup A isolate Wash/11657/′60 (respiratory syncytial virus, subgroup A); test: cell-based or functional assay
[10] = biological target: RSV F glycoprotein of subgroup B isolate WV/14617/′85 (respiratory syncytial virus, subgroup B); test: cell-based or functional assay
[11] = biological target: RSV F glycoprotein of subgroup A isolate Wash/Bern/′65 (respiratory syncytial virus, subgroup A); test: cell-based or functional assay
[12] = biological target: RSV F glycoprotein of subgroup A isolate SL/863/′84 (respiratory syncytial virus, subgroup A); test: cell-based or functional assay
[13] = biological target: RSV F glycoprotein of subgroup B isolate WV/17154/′85 (respiratory syncytial virus, subgroup B); test: cell-based or functional assay
[14] = biological target: RSV F glycoprotein of subgroup A isolate SW/669/′59 (respiratory syncytial virus, subgroup A); test: cell-based or functional assay
[15] = biological target: RSV F glycoprotein of subgroup B isolate WV/2B/′87 (respiratory syncytial virus, subgroup B); test: cell-based or functional assay
[16] = biological target: RSV F glycoprotein of subgroup B isolate WV/20323/′87 (respiratory syncytial virus, subgroup B); test: cell-based or functional assay
[17] = biological target: RSV F glycoprotein of subgroup B isolate WV/285R/′90 (respiratory syncytial virus, subgroup B); test: cell-based or functional assay
[18] = biological target: RSV F glycoprotein of subgroup A isolate SL/10865/′84 (respiratory syncytial virus, subgroup A); test: cell-based or functional assay
[19] = biological target: RSV F glycoprotein of subgroup B isolate WV/4843/′80 (respiratory syncytial virus, subgroup B); test: cell-based or functional assay
[20] = biological target: RSV F glycoprotein of subgroup A isolate SL/10849/′84 (respiratory syncytial virus, subgroup A); test: cell-based or functional assay
[21] = biological target: RSV F glycoprotein of subgroup A isolate OK/9970/′85 (respiratory syncytial virus, subgroup A); test: cell-based or functional assay
[22] = biological target: RSV F glycoprotein of subgroup A isolate Bir/6190/′89 (respiratory syncytial virus, subgroup A); test: cell-based or functional assay
[23] = biological target: RSV F glycoprotein of subgroup A isolate New/RSS-2/′76 (respiratory syncytial virus, subgroup A, UniProt P11209 26-574); test: cell-based or functional assay
[24] = biological target: RSV F glycoprotein of subgroup B isolate Wash/18537/′62 (respiratory syncytial virus, subgroup B, UniProt P13843 26-574); test: cell-based or functional assay
[25] = biological target: RSV F glycoprotein of subgroup B isolate WV/401R/′90 (respiratory syncytial virus, subgroup B); test: cell-based or functional assay
[26] = biological target: RSV F glycoprotein of subgroup B isolate WV/1293/′75 (respiratory syncytial virus, subgroup B); test: cell-based or functional assay
[27] = biological target: RSV F glycoprotein of subgroup B isolate WV/474R/′90 (respiratory syncytial virus, subgroup B); test: cell-based or functional assay
[28] = biological target: RSV F glycoprotein of subgroup A isolate Bir/1734/′89 (respiratory syncytial virus, subgroup A); test: cell-based or functional assay
BSA = BSA (UniProt P02769 25-607); test: ELISA with purified Fab
Sequence of BSA (P02769 25-607 limits assumed): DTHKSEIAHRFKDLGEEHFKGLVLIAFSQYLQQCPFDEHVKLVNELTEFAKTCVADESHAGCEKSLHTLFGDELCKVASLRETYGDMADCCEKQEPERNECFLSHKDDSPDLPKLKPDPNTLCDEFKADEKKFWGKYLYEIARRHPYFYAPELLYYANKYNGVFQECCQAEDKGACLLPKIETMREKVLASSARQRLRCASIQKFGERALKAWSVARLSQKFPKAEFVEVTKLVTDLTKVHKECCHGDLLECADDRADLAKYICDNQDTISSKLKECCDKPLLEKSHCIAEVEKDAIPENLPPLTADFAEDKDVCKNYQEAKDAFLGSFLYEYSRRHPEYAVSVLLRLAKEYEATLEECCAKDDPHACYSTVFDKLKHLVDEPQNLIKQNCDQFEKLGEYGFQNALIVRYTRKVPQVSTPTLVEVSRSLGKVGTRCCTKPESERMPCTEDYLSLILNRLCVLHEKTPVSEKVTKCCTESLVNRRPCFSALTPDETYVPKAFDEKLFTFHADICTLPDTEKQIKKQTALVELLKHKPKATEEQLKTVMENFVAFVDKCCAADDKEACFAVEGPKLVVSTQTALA

B1: human monoclonal Fab RSVF2-5 (Fab, V domains shown)
VH: LEESGGDLVQPGRSLRLSCSTSGFSFGDYPVNWFRQAPGKGLEWLGIVRSRLYGGTLQYAASVEGRFTISRDDSKSIAYLHMNSLKSEDTAVYYCGVPVANIDYWGQGTLVTVSS
VL: LTQPHSVSESLGKTVTISCTRAGGRIASNYVQWYQQRPGSSPTTVIYEDNQRPFGVPDRFSGSIDTSSNSASLTISGLKTEDEADYYCQSYDSENPWVFGGGTKLTVLG
notes: CH1 and CL are therefore probably not in these entries; also called RSV Fab F2-5
Dose for 60% plaque reduction [1]: 0.4 µg/mL | Dose for 60% plaque reduction [2]: 0.5 µg/mL | Dose for 60% plaque reduction [3]: 0.9 µg/mL | Dose for 60% plaque reduction [4]: 0.1 µg/mL | Dose for 60% plaque reduction [5]: 0.3 µg/mL | Dose for 60% plaque reduction [6]: > 18 µg/mL | Dose for 60% plaque reduction [7]: < 0.3 µg/mL | Dose for 60% plaque reduction [8]: 0.1 µg/mL | Specific neutralization activity (µg/ml): purified Fab for 60% plaque reduction, Vero cells [9]: 1.6 µg/mL | Specific neutralization activity (µg/ml): purified Fab for 60% plaque reduction, Vero cells [10]: 2.6 µg/mL | Specific neutralization activity (µg/ml): purified Fab for 60% plaque reduction, Vero cells [11]: 0.6 µg/mL | Specific neutralization activity (µg/ml): purified Fab for 60% plaque reduction, Vero cells [12]: 0.2 µg/mL | Specific neutralization activity (µg/ml): purified Fab for 60% plaque reduction, Vero cells [13]: 2.1 µg/mL | Specific neutralization activity (µg/ml): purified Fab for 60% plaque reduction, Vero cells [14]: 3 µg/mL | Specific neutralization activity (µg/ml): purified Fab for 60% plaque reduction, Vero cells [15]: 0.3 µg/mL | Specific neutralization activity (µg/ml): purified Fab for 60% plaque reduction, Vero cells [16]: 0.8 µg/mL | Specific neutralization activity (µg/ml): purified Fab for 60% plaque reduction, Vero cells [17]: 0.6 µg/mL | Specific neutralization activity (µg/ml): purified Fab for 60% plaque reduction, Vero cells [18]: 0.4 µg/mL | Specific neutralization activity (µg/ml): purified Fab for 60% plaque reduction, Vero cells [19]: 0.5 µg/mL | Specific neutralization activity (µg/ml): purified Fab for 60% plaque reduction, Vero cells [20]: 0.9 µg/mL | Specific neutralization activity (µg/ml): purified Fab for 60% plaque reduction, Vero cells [21]: 1.4 µg/mL | Specific neutralization activity (µg/ml): purified Fab for 60% plaque reduction, Vero cells [22]: 2.4 µg/mL | Specific neutralization activity (µg/ml): purified Fab for 60% plaque reduction, Vero cells [23]: 1.9 µg/mL | Specific neutralization activity (µg/ml): purified Fab for 60% plaque reduction, Vero cells [24]: 0.5 µg/mL | Specific neutralization activity (µg/ml): purified Fab for 60% plaque reduction, Vero cells [25]: 0.7 µg/mL | Specific neutralization activity (µg/ml): purified Fab for 60% plaque reduction, Vero cells [26]: 1 µg/mL | Specific neutralization activity (µg/ml): purified Fab for 60% plaque reduction, Vero cells [27]: 0.9 µg/mL | Specific neutralization activity (µg/ml): purified Fab for 60% plaque reduction, Vero cells [28]: 1.1 µg/mL | binding result (BSA): no binding
